Consider four substances from patent US20240218041A1, “MOLECULAR DESIGN OF GLUCOSE SENSORS IN GLUCOSE-RESPONSIVE INSULIN ANALOGUES” (THE TRUSTEES OF INDIANA UNIVERSITY, priority 2021, published 2024).

The test system of assay [1] is IR autophosphorylation and downstream p-AKT/AKT, p-FOXO1/FOXO1, p-GSK-3/GSK-3. In words: Western blot signaling assays in HepG2 cells. It counts as cell-based, human.
Description: Signal propagation was probed via a cytoplasmic kinase cascade and changes in metabolic gene expression in HepG2 cells. […] An overview of IR autophosphorylation (probed by anti-pTyr IR antibodies) and downstream phosphorylation of Ser-Thr protein kinase AKT (protein kinase B; ratio p-AKT/AKT), forkhead transcription factor 1 (p-FOXO1/FOXO1), and glycogen synthase kinase-3 (p-GSK-3/GSK-3) at a single hormone dose (50 nM) was provided by Western blot (WB).
Signaling assays in a mammalian cell line. HepG2 cell line (ATCC) were cultured in DMEM with 10% FBS, 1% penicillin/streptomycin per vendor's instruction. After 70-75% cell confluence, cells were serum-starved for 24 h and then exposed to medium containing an insulin analogue (each at a protein concentration of 50 nM). After lysis in RIPA buffer (containing protease- and phosphatase-inhibitor cocktails; Roche), the total protein concentrations in the lysate was determined by BCA assay (Thermo). […] Briefly, for p-IR/IR blotting, samples were probed by insulin receptor β (4B8) antibody (CST antibodies unless otherwise stated) or an equal mixture of anti-phospho-insulin receptor β (Tyr1150/1151); phospho-insulin receptor (Tyr1158) antibody (Thermo); phospho-insulin receptor (Tyr1334) antibody (Thermo); phospho-insulin receptor β (Tyr1345) monoclonal antiserum; and anti-phospho-insulin receptor (phospho-Tyr972) antibody (Abcam). […]
For assay [2], the system named is PEPCK, ChREBP and SREBP gene expression in HepG2 cells. In words: Real-time qPCR assays of metabolic gene regulation in HepG2 cells. Type of assay: cell-based, human. On the technique in general: Real-time PCR tracks product formation cycle by cycle.
Description: Cell culture. Human hepatocellular carcinoma cell line HepG2 was cultured in Dulbecco's Modified Eagle Medium (DMEM), supplemented with 10% fetal bovine serum (FBS), 1% penicillin/streptomycin as recommended by the American Type Culture Collection. A protocol employing 24-h serum starvation wherein FBS was applied at 70-75% confluence. After starvation, cells were treated in parallel with a set of insulin analogues in serum-free medium.
Real-time qPCR assays. Following serum starvation, HepG2 cells were treated with medium containing an insulin analogue (50 nM) for 8 h. In studies related to possible glucose responsiveness and lipid metabolism, the cells were treated with analogues for 3 or 4 h in media containing either low or normal glucose concentrations. Readouts were provided by downregulation of PEPCK and G6P and upregulation of ChREBP and SREBP. mRNA (messenger ribonucleic acid) abundances were measured in triplicate by quantitative polymerase chain reaction (qPCR). Samples were prepared as described by the vendor (One-Step rt-PCR reagent kits; Bio-Rad).
The target in the next assay is insulin receptor (Homo sapiens, UniProt P06213). In words: In-cell pIR immunoblotting (pIR/IR phosphorylation, 96-well plate assay) in HepG2 cells. Type of assay: cell-based. Details: endogenous in cells; host or cells: HepG2 (human hepatocellular carcinoma; ATCC). The settings on record: for glucose-dependent activity in HepG2 cells in culture: as described in Chen, Y.-S., et al. (2021); for monosaccharide dependence of biological activity (pIR/IR phosphorylation): ±50 mM glucose or ±50 mM fructose.

For assay [3] the following is noted: in vivo; cited from earlier work.

Description for insulin receptor: After starvation, cells were treated in parallel with a set of insulin analogues in serum-free medium.
In-cell pIR immunoblotting. This cell-based assay probed insulin-dependent IR activation via fluorescent readouts. HepG2 cells were seeded (˜8000 cells/well) into a 96-well black plate with clear bottom and cultured (Fisher). After serum starvation in 100 μl plain Hanks' Balanced Salt Solution (HBSS) for 2 h at 37° C., serial analogue dilutions (100 μl) were applied to each well; cells were then incubated for 20 min at 37° C. After removing medium, 150 μl of 3.7% formaldehyde (Fisher) was added to each well, and plates incubated for 20 min at 37° C. 200 μl of 0.1% Triton-X-100 (Sigma) was then added to permeabilize the cells, followed by their fixation by 100-μl Odyssey Blocking Buffer (LI-COR). A blocking procedure was applied for 1 h at room temperature on an orbital shaker. Fixed cells were then exposed to the primary antibody (10 μL anti-pTyr 4G10 (Sigma) into 20 ml Blocking Buffer) overnight at 4° C. The secondary antibody (anti-mouse-IgG-800-CW antibody (Sigma) in 25 ml Blocking Buffer) was added after a wash. pTyr was detected via 800 nm emission. DRAQ5 (Fisher) was also applied to enable measurement of cell number via 700 nm emission. The fluorescence signals were detected on a LI-COR Infrared Imaging system (Odyssey) under settings as follows: offset 4 mm with setting “Intensity-Auto.”

Consider “FRI: insulin lispro with meta-fluoro-PBA on the α-amino group of GlyA1, 3,4-dihydroxybenzoic acid on LysB28, and HisA8”, for which the signaling activity result in assay [1] (in the absence of fructose, 50 nM) is recorded as “low”. In addition, the “fructose dependence of signaling (IR autophosphorylation, p-AKT/AKT, p-FOXO1/FOXO1, p-GSK-3/GSK-3)” value in assay [1] (single hormone dose 50 nM, HepG2 cells) was “fructose-dependent signaling”. Moreover, the “regulation of PEPCK gene expression” value in assay [2] (activated by fructose, hypoglycemic conditions, HepG2) was “regulated downstream expression”. For the same substance, the “regulation of ChREBP and SREBP genes” value in assay [2] (activated by fructose, normoglycemic conditions, HepG2) was “regulated the genes”. Further, the “effect of glucose on metabolic gene regulation” value in assay [2] (addition of glucose instead of fructose) is given as “no effects”. In addition, in the assay with insulin receptor (addition of 50 mM glucose), the “effect of glucose on IR autophosphorylation activity” value is “did not influence its activity”. In the assay with insulin receptor (in 50 mM fructose), the “IR autophosphorylation activity relative to KP” value is given as “almost as active as KP”. Moreover, the “baseline IR autophosphorylation activity” value with insulin receptor (in the absence of fructose) is recorded as “low”. Also, the IR autophosphorylation signal result with insulin receptor (on addition of 50 mM fructose) is “robust signal”.
Take “GlyA0, D-Cys(GBE1-C)A1, SecA6, SecA11, Lys(DHBA)B28-lispro [GRI-3]”: the glucose-dependent gene regulation entry in assay [2] (PEPCK, ChREBP and SREBP, HepG2 cells in culture) was “glucose-dependent gene regulation”. In addition, in the assay with insulin receptor, the “glucose-dependent activity in HepG2 cells in culture” value is “glucose-dependent activity”. Further, the “monosaccharide dependence of biological activity (pIR/IR phosphorylation)” value in the assay with insulin receptor (HepG2 cells) is “monosaccharide-dependent biological activity”. Besides, the “glucose dependence of pIR/IR phosphorylation” value in the assay with insulin receptor (±50 mM glucose, HepG2 cells) is given as “glucose-dependent IR phosphorylation”.
Take “GlyA−1, Cys(GBE1-C)A0, SecA6, SecA11, Lys(DHBA)B28-lispro [GRI-4]”: the “glucose-dependent activity in HepG2 cells in culture” value with insulin receptor is reported as “glucose-dependent activity”. Further, the “monosaccharide dependence of biological activity (pIR/IR phosphorylation)” value in the assay with insulin receptor (HepG2 cells) is listed as “monosaccharide-dependent biological activity”.
Consider insulin detemir, for which, in assay [3], the “per molecule activity relative to human insulin” value is given as “fourfold reduced”.
